Laboratory results published in patent US20250213730A1 (Takeda / Millennium, published 2025).

Assays:
[1] = biological target: T1, Mouse TfR1 (TR06671428-001; Takeda) (mouse, UniProt Q62351 89-763); assay: SPR (Biacore 8K+), I2S immobilized on CM5 by amine coupling, TfR1 as analyte
T1 construct: Injected as analyte in SPR; also called mTFR1; mouse transferrin receptor 1
Procedure: (§1) Surface Plasmon Resonance (SPR) assays: Binding affinity between human/mouse receptor with Iduronate 2 Sulfatase or idursulfase (I2S) tagged with an anti-transferrin receptor binding single domain antibody (VHH) was determined using the Biacore 8K+ instrument (Cytiva; Danaher Corporation). In this experiment, samples were immobilized on a series S sensor chip CM5 (Catalog #29104988) via amine coupling. Samples immobilized (ligand) were i) I2S-VHH ii) VHH-I2S iii) I2S as negative control iv) Holo transferrin peptide as positive control. 1 ug/mL of ligand, reconstituted in Acetate pH 4.0, was immobilized on individual flow cells for 420 s, yielding a final immobilization level of approximately 350 Response Units. Recombinant Human TfR Protein (R&D Systems; Catalog #2474-TR) and Mouse TfR1 (TR06671428-001; Takeda) were injected on this surface (as analyte) with a concentration range of 5, 2.5, 1.25, 0.625 & 0.156 ug/mL. Analyte series was injected for 120 s, followed by a dissociation phase for a duration that yields at least 10% dissociation of analyte. Resulting sensograms were analyzed using the 1:1 Binding Model.

[2] = biological target: T2, Recombinant Human TfR Protein (R&D Systems; Catalog #2474-TR) (human, UniProt P02786 89-760); assay: SPR (Biacore 8K+), I2S immobilized on CM5 by amine coupling, TfR as analyte
T2 construct: Bought reagent, injected as analyte in SPR; also called hTfR1; hTFR1
Procedure: as §1

T1 sequence (Q62351 89-763 limits assumed): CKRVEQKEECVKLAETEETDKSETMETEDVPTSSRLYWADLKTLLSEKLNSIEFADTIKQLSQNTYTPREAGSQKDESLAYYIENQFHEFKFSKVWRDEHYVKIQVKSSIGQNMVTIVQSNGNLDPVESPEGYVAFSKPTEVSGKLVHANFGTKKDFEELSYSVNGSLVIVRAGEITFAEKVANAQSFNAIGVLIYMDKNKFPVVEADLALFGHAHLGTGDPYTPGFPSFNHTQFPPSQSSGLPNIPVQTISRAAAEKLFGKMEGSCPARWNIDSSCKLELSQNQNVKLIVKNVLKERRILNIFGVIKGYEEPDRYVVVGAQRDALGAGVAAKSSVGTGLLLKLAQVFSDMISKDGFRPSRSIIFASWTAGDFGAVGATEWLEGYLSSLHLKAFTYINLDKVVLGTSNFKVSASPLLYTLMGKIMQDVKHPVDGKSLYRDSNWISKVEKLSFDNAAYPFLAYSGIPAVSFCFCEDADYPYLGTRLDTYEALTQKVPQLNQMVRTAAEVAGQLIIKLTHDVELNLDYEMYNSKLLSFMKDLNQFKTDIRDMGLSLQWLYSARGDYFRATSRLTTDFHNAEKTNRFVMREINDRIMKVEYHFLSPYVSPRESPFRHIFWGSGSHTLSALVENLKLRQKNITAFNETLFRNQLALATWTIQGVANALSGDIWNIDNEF
T2 sequence (P02786 89-760 limits assumed): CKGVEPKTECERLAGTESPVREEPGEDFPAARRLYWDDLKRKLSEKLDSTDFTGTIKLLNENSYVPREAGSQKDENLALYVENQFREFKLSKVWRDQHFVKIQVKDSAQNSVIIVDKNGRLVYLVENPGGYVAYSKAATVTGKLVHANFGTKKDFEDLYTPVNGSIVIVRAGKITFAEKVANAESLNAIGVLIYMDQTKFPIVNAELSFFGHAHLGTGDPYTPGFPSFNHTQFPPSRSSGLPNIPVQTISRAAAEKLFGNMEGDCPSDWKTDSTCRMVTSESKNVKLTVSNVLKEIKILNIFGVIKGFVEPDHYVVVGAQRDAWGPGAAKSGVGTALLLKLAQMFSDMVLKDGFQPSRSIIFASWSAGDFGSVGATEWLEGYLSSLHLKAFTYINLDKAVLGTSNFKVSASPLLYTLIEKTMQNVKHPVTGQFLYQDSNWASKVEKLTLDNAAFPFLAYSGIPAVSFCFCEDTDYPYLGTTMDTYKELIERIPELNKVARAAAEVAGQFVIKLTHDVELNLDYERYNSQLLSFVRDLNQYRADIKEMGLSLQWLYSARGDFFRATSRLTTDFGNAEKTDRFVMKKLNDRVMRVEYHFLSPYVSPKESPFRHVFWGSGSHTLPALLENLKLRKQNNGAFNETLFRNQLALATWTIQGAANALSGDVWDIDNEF

B1: I2S control (untagged human iduronate-2-sulfatase, purified protein) (enzyme)
chain: SETQANSTTDALNVLLIIVDDLRPSLGCYGDKLVRSPNIDQLASHSLLFQNAFAQQAVCAPSRVSFLTGRRPDTTRLYDFNSYWRVHAGNFSTIPQYFKENGYVTMSVGKVFHPGISSNHTDDSPYSWSFPPYHPSSEKYENTKTCRGPDGELHANLLCPVDVLDVPEGTLPDKQSTEQAIQLLEKMKTSASPFFLAVGYHKPHIPFRYPKEFQKLYPLENITLAPDPEVPDGLPPVAYNPWMDIRQREDVQALNISVPYGPIPVDFQRKIRQSYFASVSYLDTQVGRLLSALDDLQLANSTIIAFTSDHGWALGEHGEWAKYSNFDVATHVPLIFYVPGRTASLPEAGEKLFPYLDPFDSASQLMEPGRQSMDLVELVSLFPTLAGLAGLQVPPRCPVPSFHVELCREGKNLLKHFRFRDLEEDPYLPGNPRELIAYSQYPRPSDIPQWNSDKPSLKDIKIMGYSIRTIDYRYTVWVGFNPDEFLANFSDIHAGELYFVDSDPLQDHNMYNDSQGGDLFQLLMP
notes: Negative control in the SPR assay; also called idursulfase; IDS
B1: no binding (tested: analyte 0.156-5 ug/mL) [1]; no binding (tested: analyte 0.156-5 ug/mL) [2].
